Patent US20250388696A1
Where no end group is shown, it is not given here.

Columns and labels:
[1] = molecular target: hFAP-Fc (human) (UniProt Q12884); assay: SPR, Fc-tagged FAP captured on immobilised protein A, pH 7.3, 1:1 Langmuir fit
[2] = molecular target: human serum albumin (human) (UniProt P02768); assay: SPR, HSA immobilised on the chip, pH 7.3, 1:1 Langmuir fit
[3] = molecular target: extra domain B of oncofetal human fibronectin (ED-B) (human) (UniProt P02751); assay: SPR, ED-B immobilised on the chip, pH 7.3, 1:1 Langmuir fit
[4] = molecular target: extra domain B of oncofetal human fibronectin (ED-B) (human) (UniProt P02751); assay: SPR
[5] = molecular target: human serum albumin (human) (UniProt P02768); assay: SPR
[6] = molecular target: mouse serum albumin (mouse) (UniProt P07724); assay: SPR
mouse serum albumin (mouse), sequence (P07724 25-608 limits assumed): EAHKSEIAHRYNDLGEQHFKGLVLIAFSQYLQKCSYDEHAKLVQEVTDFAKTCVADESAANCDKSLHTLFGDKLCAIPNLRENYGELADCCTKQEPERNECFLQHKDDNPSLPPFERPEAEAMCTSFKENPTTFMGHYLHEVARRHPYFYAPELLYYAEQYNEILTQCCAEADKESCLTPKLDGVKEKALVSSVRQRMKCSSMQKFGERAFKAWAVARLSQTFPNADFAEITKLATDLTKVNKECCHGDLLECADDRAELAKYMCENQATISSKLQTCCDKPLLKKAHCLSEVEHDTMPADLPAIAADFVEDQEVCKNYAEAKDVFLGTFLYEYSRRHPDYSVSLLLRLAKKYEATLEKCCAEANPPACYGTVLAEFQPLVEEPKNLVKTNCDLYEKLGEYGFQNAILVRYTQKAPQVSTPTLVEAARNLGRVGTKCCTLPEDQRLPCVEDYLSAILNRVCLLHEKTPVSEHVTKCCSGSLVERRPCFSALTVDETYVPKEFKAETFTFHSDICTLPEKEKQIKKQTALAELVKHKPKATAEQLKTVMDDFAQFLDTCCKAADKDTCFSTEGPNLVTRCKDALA

extra domain B of oncofetal human fibronectin (ED-B) (human), sequence (P02751 1266-1356 limits assumed): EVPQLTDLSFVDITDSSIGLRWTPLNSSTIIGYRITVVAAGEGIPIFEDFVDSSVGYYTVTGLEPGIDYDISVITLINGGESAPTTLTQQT
human serum albumin (human), sequence (P02768 25-609 limits assumed): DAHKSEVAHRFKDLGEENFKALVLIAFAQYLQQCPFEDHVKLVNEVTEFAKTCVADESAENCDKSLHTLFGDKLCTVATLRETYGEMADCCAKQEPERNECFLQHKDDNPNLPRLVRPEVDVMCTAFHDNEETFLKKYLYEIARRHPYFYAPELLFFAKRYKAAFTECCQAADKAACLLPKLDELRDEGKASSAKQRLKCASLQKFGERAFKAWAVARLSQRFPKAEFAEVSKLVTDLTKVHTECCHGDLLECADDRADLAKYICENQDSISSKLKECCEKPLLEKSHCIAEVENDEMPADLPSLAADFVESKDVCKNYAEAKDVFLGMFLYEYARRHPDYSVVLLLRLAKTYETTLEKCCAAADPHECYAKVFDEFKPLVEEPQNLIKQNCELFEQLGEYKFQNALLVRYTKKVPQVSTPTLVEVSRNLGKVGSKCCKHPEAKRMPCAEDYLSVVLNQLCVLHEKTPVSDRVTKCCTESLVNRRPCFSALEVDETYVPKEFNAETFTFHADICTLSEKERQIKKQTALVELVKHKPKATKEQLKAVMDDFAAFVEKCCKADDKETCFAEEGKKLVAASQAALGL
hFAP-Fc (human), sequence (Q12884 26-760 limits assumed): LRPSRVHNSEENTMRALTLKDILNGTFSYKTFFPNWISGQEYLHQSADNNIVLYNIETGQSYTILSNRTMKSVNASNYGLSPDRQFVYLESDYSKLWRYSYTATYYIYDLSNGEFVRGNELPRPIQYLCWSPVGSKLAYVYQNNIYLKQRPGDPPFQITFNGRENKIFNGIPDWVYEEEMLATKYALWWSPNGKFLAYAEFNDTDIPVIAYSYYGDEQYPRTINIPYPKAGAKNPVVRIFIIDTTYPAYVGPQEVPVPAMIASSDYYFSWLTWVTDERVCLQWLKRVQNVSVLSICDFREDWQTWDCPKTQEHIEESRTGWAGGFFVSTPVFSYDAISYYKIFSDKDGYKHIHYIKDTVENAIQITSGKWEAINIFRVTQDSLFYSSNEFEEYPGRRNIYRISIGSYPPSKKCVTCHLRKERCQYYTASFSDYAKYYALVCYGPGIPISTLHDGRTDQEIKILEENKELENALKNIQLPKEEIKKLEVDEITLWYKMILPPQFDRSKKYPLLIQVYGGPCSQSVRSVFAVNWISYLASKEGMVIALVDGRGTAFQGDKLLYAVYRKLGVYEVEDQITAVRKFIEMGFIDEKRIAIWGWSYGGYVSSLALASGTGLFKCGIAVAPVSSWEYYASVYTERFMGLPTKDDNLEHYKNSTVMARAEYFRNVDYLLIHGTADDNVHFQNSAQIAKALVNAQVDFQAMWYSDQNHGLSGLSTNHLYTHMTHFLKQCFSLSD

Binder | Kd [2] | Kd [3] | also measured
LAEAKVLALKELDKYGISNYYKNLINNAKTVEGVKALKEAIVAA (designed binder, part only; not given: FAP binding domain, linkers, tags, part only) [221191] | 3.8 nM |  | Kd [1]: 3.8 nM
LAEAKVLALKELDKYGISNYYKNLINNAKTIEGVKALKDQIVAA (designed binder, part only; not given: ED-B binding domain, linkers, tags, part only) [215661] | 3.8 nM | 0.4 nM | 
LAEAKVLALKELDKYGISNYYKNLINNAKTIEGVEALKDAIVAA (designed binder, part only; not given: ED-B binding domain, linkers, tags, part only) [215673] | 3.3 nM | 0.1 nM | 
LAEAKVLALKELDKYGISNYYKNLINNAKTIEGVEALKEAIVAA (designed binder, part only; not given: ED-B binding domain, linkers, tags, part only) [215674] | 5 nM | 0.1 nM | 
LAEAKVLALKELDKYGISNYYKNLINNAKTVEGVKALKEAIVAA (designed binder, part only; not given: ED-B binding domain, linkers, tags, part only) [217806] | 1.5 nM | 0.1 nM | 
LAEAKVLALKELDKYGISNYYKNLINNAKTIEGVKALKAAIVAA (designed binder, part only; not given: ED-B binding domain, linkers, tags, part only) [215663] | 2.6 nM | 0.2 nM | 
LAEAKVLALKELDKYGISNYYKNLINNAKTIEGVKALKDEIVAA (designed binder, part only; not given: FAP binding domain, linkers, tags, part only) [221215] | 7.9 nM |  | Kd [1]: 8 nM
LAEAKVLALKELDKYGISNYYKNLINNAKTIEGVKALKAQILAA (designed binder, part only; not given: ED-B binding domain, linkers, tags, part only) [215665] | 3 nM | 0.1 nM | 
LAEAKVLALKELDKYGISNYYKNLINNAKTIEGVEALKAQIVAA (designed binder, part only; not given: ED-B binding domain, linkers, tags, part only) [215659] | 13.4 nM |  | 
LAEAKVLALKELDKYGISNYYKNLINNAKTIEGVKALKDEIVAA (designed binder, part only; not given: ED-B binding domain, linkers, tags, part only) [215671] | 7.3 nM | 0.1 nM | 
LAEAKVLALKELDKYGISNYYKNLINNAKTIEGVEALKDAILAA (designed binder, part only; not given: ED-B binding domain, linkers, tags, part only) [215675] | 1.1 nM | 0.6 nM | 
LAEAKVLALKELDKYGISNYYKNLINNAKTIEGVKALKEAIVAA (designed binder, part only; not given: ED-B binding domain, linkers, tags, part only) [215670] | 3.4 nM | 0.7 nM | 
LAEAKVLALKELDKYGISNYYKNLINNAKTVEGVKALKEAIVAALP (designed binder, part only; not given: ED-B binding domain, linkers, tags, part only, also: fusion protein, linkers and tags not given here) [219087] | 1.4 nM | 0.2 nM | 
LAEAKVLALKELDKYGISNYYKNLINNAKTVEGVKALKEAIVAALP (designed binder, part only; not given: ED-B binding domain, linker, part only, also: DOTA coupled, site not given here, Lu loaded) [ED-B specific fusion protein 219087 DOTA Lu] |  |  | Kd [4]: < 1 nM; Kd [5]: 1.3 nM; Kd [6]: 1.3 nM
LAEAKVLAIKELDKAGISDYYFNLINNAKTVEGVKALKAQIVAA (designed binder, part only; not given: ED-B binding domain, linkers, tags, part only) [215035] | 2.4 nM |  | 
LAEAKVLALKELDKYGISNYYKNLINNAKTIEGVKALKAQIVAA (designed binder, part only; not given: ED-B binding domain, linkers, tags, part only) [215652] | 4.1 nM | 0.4 nM | 
LAEAKVLAIKELDKAGISNYYFNLINNAKTVEGVKALKAQIVAA (designed binder, part only; not given: ED-B binding domain, linkers, tags, part only) [219089] | 12.5 nM | 0.3 nM | 
LAEAKVLAIKELDKAGISDYYFNLINNAKTIEGVKALKAQIVAA (designed binder, part only; not given: ED-B binding domain, linkers, tags, part only) [215039] | 2.2 nM |  | 
LAEAKVLAIKELDKAGISNYYFNLINNAKTIEGVKALKAQIVAA (designed binder, part only; not given: ED-B binding domain, linkers, tags, part only) [215055] | 1.7 nM |  | 
LAEAKVLAIKELDKAGISNYYFNLINNAKTVEGVKDLKAQIVAA (designed binder, part only; not given: ED-B binding domain, linkers, tags, part only) [215052] | 7.9 nM |  | 
LAEAKVLAIKELDKAGISDYYFNLINNAKTVDGVKALKAQIVAA (designed binder, part only; not given: ED-B binding domain, linkers, tags, part only) [215037] | 19.9 nM |  | 
LAEAKVLALKELDKYGISNYYKNLIDKAKTIEGVEALKDAILAA (designed binder, part only; not given: ED-B binding domain, linkers, tags, part only) [215680] | 0.8 nM | 0.1 nM | 
